Reference: the supplement of paper PMC9233669
Fewer inactive variants are shown than the library holds.

Legend:
biotinyl-Phe-oxazolone = experiment: self-aminoacylation, catalytic enhancement (BFO) (fold over background); higher = more active; k-Seq, kA / k0A0; sequences stand for … in GGGAAUGGAUCCACAUCUACGAAUUC…UUCACUGCAGACUUGACGAAGCUG
Method in brief: (§1)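 The uncatalyzed rate is the low-activity peak of a bimodal Gaussian fit, and catalytic enhancement is median kA divided by it. The kA values came from pseudo-first-order fits, with 1000 bootstraps, of per-sequence fraction reacted measured by streptavidin capture, triplicate qPCR and Illumina sequencing. Mutagenized RNA pools with a 21-nt variable region (0.43 μM) were reacted with each biotinyl-aminoacyl-oxazolone at 2–1250 μM in 50 μL HEPES/NaCl/KCl/MgCl2/CaCl2 buffer with 5% acetonitrile, pH 6.9–7.0, for 90 minutes at room temperature.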

biotinyl-Ile-oxazolone = experiment: self-aminoacylation, catalytic enhancement (BIO) (fold over background); higher = more active; k-Seq, kA / k0A0; sequences stand for … in GGGAAUGGAUCCACAUCUACGAAUUC…UUCACUGCAGACUUGACGAAGCUG
Method in brief: as §1

biotinyl-Met-oxazolone = experiment: self-aminoacylation, catalytic enhancement (BMO) (fold over background); higher = more active; k-Seq, kA / k0A0; sequences stand for … in GGGAAUGGAUCCACAUCUACGAAUUC…UUCACUGCAGACUUGACGAAGCUG
Method in brief: as §1

biotinyl-Val-oxazolone = experiment: self-aminoacylation, catalytic enhancement (BVO) (fold over background); higher = more active; k-Seq, kA / k0A0; sequences stand for … in GGGAAUGGAUCCACAUCUACGAAUUC…UUCACUGCAGACUUGACGAAGCUG
Method in brief: as §1

biotinyl-Leu-oxazolone = experiment: self-aminoacylation, catalytic enhancement (BLO) (fold over background); higher = more active; k-Seq, kA / k0A0; sequences stand for … in GGGAAUGGAUCCACAUCUACGAAUUC…UUCACUGCAGACUUGACGAAGCUG
Method in brief: as §1

biotinyl-Trp-oxazolone = experiment: self-aminoacylation, catalytic enhancement (BWO) (fold over background); higher = more active; k-Seq, kA / k0A0; sequences stand for … in GGGAAUGGAUCCACAUCUACGAAUUC…UUCACUGCAGACUUGACGAAGCUG
Method in brief: as §1

Sequence	self-aminoacylation (biotinyl-Phe-oxazolone)	self-aminoacylation (biotinyl-Ile-oxazolone)	self-aminoacylation (biotinyl-Met-oxazolone)	self-aminoacylation (biotinyl-Val-oxazolone)	self-aminoacylation (biotinyl-Leu-oxazolone)	self-aminoacylation (biotinyl-Trp-oxazolone)
AUUACUAUGGUCAUCGAGUGA [Fam2.1 aminoacylation ribozyme variant]	22.6	3.32	6.37	3.31	6.66	8.33
AUUCACCUAGGUCAUCAGGAG [Fam2.2 aminoacylation ribozyme variant]	0.931	0.957	0.951	1.09	1.01	0.779
CCGCACUUCAGGCAAUCGGUC [Fam1B.1 aminoacylation ribozyme variant]	6.33	1.76	1.98	2.87	2.33	2.88
AAAUUUGCUAAUAGUCGCGAG [Fam3.1 aminoacylation ribozyme variant]	1.34	2.12	2.44	1.76	2.53	2.48
CCACACUUAAAGCAAUCGGCC [Fam1B.1 aminoacylation ribozyme variant]	7.34	1.72	1.71	1.97	2.15	1.7
AUUCACUUAGGGCAUCGGGUG [Fam2.2 aminoacylation ribozyme variant]	24.5	2.91	3.03	2.72	3.98	3.48
AUCACCUUGGUCAUCGAGUGA [Fam2.1 aminoacylation ribozyme variant]	5.13	3.39	5.76	3.35	6.86	7.19
CUACUUCAGACAAUCGGUCUG [Fam1A.1 aminoacylation ribozyme variant]	1.19	0.782	0.758	0.822	0.807	0.857
AUUGCCCUGGCCAUCGAGUGA [Fam2.1 aminoacylation ribozyme variant]	25.2	2.48	3.8	2.74	4.96	4.87
AAGCUUGCAAAUAGUCGCAAG [Fam3.1 aminoacylation ribozyme variant]	7.03	2.14	2.53	2.25	2.07	2.14
AAGUUUGCUAAAAGUCGCAAC [Fam3.1 aminoacylation ribozyme variant]	0.796	1.08	1.1	0.948	1.25	1.01
CUACUUCAUACAAUCGAUCUG [Fam1A.1 aminoacylation ribozyme variant]	0.752	0.657	0.653	0.806	0.505	0.601
AUCCACGUAGGUCAUCGGGUG [Fam2.2 aminoacylation ribozyme variant]	37.4	3.4	4.61	4.96	4.88	4.86
CCACACCUCAAGCAAUCGGUC [Fam1B.1 aminoacylation ribozyme variant]	2.37	1.03	0.862	1.15	0.908	1.56
CCACACUUGAAGCUAUCGGUC [Fam1B.1 aminoacylation ribozyme variant]	0.482	1.07	0.885	1.02	0.775	0.759
AUUCAUCUAGGUCAGCGGGUG [Fam2.2 aminoacylation ribozyme variant]	25.3	3.25	4.17	3.23	5.56	4.36
AUUCACCAAGGACAUCGGGUG [Fam2.2 aminoacylation ribozyme variant]	30	3.2	4.65	3.27	4.96	4.17
AAGUUAGCUAAUAGUCGCAAG [Fam3.1 aminoacylation ribozyme variant]	5.25	1.78	1.6	1.49	1.52	2.21
AAUACCGUGGUCAUCGAGUGA [Fam2.1 aminoacylation ribozyme variant]	26.4	2.89	5.12	2.81	4.83	5.14
CCACACAUCAAGCAAUCGGUG [Fam1B.1 aminoacylation ribozyme variant]	31.6	3.27	4.98	3.26	6.65	5.14
AAGUUUGCUAGCAGUCGCAAG [Fam3.1 aminoacylation ribozyme variant]	1.85	1.19	1.03	1.08	1.04	0.91
AUUACCCUGGUAACCGAGUGA [Fam2.1 aminoacylation ribozyme variant]	96.5	5.22	12.5	5.58	12.2	14.2
UUUCCCCUAGGUCAUCGGGUG [Fam2.2 aminoacylation ribozyme variant]	96.8	6.97	11.8	6.87	15.1	10.4
AUGCACCUAUGUCAUCGGGUG [Fam2.2 aminoacylation ribozyme variant]	26.4	2.81	4.11	2.48	5.19	4.24
AUUCAACUAGGUGAUCGGGUG [Fam2.2 aminoacylation ribozyme variant]	21.9	3.02	3.11	2.76	4.01	4.01
